Test [1] concerns the target micro(μ)-plasmin (human, UniProt P00747 561-580; P00747 581-810). Description: SEC. On the technique in general: In gel filtration, larger molecules generally elute earlier.
Test [2] concerns the target Glu-plasminogen. As to the kind of experiment: SPR. In general terms: SPR reads the build-up and loss of mass on a sensor chip optically.
In test [3] the target is tissue plasminogen activator (tPA, Alteplase). As to the kind of experiment: SPR.

Chain of Glu-plasminogen (P00747 20-810): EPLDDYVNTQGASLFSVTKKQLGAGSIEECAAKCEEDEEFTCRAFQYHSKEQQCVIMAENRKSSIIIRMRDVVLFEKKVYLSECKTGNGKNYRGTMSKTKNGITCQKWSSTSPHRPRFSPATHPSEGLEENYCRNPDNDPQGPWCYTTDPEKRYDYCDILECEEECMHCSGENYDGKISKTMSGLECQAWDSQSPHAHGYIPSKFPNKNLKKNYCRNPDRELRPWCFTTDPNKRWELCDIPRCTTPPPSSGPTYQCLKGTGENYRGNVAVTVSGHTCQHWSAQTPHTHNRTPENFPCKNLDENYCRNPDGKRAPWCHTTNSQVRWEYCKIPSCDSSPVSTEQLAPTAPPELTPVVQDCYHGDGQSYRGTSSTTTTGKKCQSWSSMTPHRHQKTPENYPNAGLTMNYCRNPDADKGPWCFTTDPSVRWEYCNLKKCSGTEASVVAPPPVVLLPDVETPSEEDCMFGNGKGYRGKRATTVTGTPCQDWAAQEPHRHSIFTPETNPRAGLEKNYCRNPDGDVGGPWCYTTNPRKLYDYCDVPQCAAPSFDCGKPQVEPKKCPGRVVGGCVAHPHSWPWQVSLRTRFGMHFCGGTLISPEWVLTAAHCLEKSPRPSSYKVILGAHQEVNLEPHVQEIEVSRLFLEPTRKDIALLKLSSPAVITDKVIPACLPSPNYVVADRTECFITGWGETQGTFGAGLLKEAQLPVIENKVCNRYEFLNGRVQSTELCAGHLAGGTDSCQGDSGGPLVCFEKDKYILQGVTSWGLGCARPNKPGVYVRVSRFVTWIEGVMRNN
Chain of micro(μ)-plasmin (P00747 561-580, chain 1 of 2): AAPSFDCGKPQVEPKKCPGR
Chain of micro(μ)-plasmin (P00747 581-810, chain 2 of 2): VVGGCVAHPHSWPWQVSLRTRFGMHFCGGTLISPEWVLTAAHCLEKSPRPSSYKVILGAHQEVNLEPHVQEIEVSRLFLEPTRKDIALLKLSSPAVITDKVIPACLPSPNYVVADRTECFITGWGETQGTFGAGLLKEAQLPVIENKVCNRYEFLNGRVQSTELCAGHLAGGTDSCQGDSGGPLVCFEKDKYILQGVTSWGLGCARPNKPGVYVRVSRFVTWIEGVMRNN

B1: KD1_(L17R)-VT (Kunitz domain 1 of tissue factor pathway inhibitor-2, Leu17Arg, with C-terminal valine) (domain or fragment, human)
chain: GSHMDAAQEPTGNNAEICLLPLDYGPCRARLLRYYYDRYTQSCRQFLYGGCEGNANNFYTWEACDDACWRIEKVPKV
B1: the binding result in test [1] is listed as “binds”. Further, in test [2], the RU at 1 μM analyte stood at 12 RU.

B2: KD1_(L17R)-KT (Kunitz domain 1 of tissue factor pathway inhibitor-2, Leu17Arg, with C-terminal lysine) (domain or fragment, human, UniProt P48307 30-94, looked up)
chain: GNNAEICLLPLDYGPCRARLLRYYYDRYTQSCRQFLYGGCEGNANNFYTWEACDDACWRIEKVPK
As for B2, the binding result in test [1] is recorded as “binds”. In test [2], the Kd was found to be 280 nM, the RU at 1 μM analyte worked out at 86 RU, the koff turned out to be 0.00031 s⁻¹ and the kon worked out at 1100 M⁻¹ s⁻¹. Also, in test [3], the Kd is 210 nM, the RU at 1 μM analyte is 155 RU, the koff amounted to 0.00019 s⁻¹ and the kon came out at 910 M⁻¹ s⁻¹.

A word on the Kd: it is the constant that tells how readily two partners part at equilibrium. A lower Kd goes with a tighter complex. A word on the koff: it is a measure of how fast the partners let go of each other. A word on the kon: it is the second-order rate constant of association. Low values mean slow association, high ones fast association.

The values above are taken from paper PMC3985851 (Biochemistry, 2014).
